According to PMC11219989:
One block for each binder: values may come before it.

Assays:
[1] = target: T1, unknown natural tumor antigen of the autologous tumor organoids of patient CRC4 peptide on (human); assay: CD137 sort of CD8+ oeT cells after 24 h restimulation with autologous tumor organoids (cells that express the antigen), single-cell RT-PCR; 2.4% in TIL alone; ex vivo sorted cells; details: chains alpha TRAV20*01 TRAJ4*01 CDR3:beta TRBV12-3*01 TRBJ1-5*01 CDR3
[2] = target: T2, unknown natural tumor antigen of the autologous tumor organoids of patient CRC1 peptide on (human); assay: CD137 sort of CD8+ oeT cells after 24 h restimulation with autologous tumor organoids (cells that express the antigen), single-cell RT-PCR; 1.2% in TIL alone; ex vivo sorted cells; details: chains alpha TRAV36/DV7*04 TRAJ30*01 CDR3:beta TRBV6-5*01 TRBJ2-2*01 CDR3
[3] = target: T1, unknown natural tumor antigen of the …; assay: CD137 sort of CD8+ oeT cells after 24 h restimulation with autologous tumor organoids (cells that express the antigen), single-cell RT-PCR; 0% in TIL alone; ex vivo sorted cells
[4] = target: T3, unknown natural tumor antigen of the autologous tumor organoids of patient CRC2 peptide on (human); assay: CD137 sort of CD8+ oeT cells after 24 h restimulation with autologous tumor organoids (cells that express the antigen), single-cell RT-PCR; 0.5% in TIL alone; ex vivo sorted cells
[5] = target: T4, unknown natural tumor antigen of the autologous tumor organoids of patient CRC3 peptide on (human); assay: CD137 sort of CD8+ oeT cells after 24 h restimulation with autologous tumor organoids (cells that express the antigen), single-cell RT-PCR; 0.4% in TIL alone; ex vivo sorted cells; details: chains alpha TRAV8-6*02 TRAJ20*01 CDR3:beta TRBV6-1*01 TRBJ1-3*01 CDR3
[6] = target: T4, unknown natural tumor antigen of the …; assay: CD137 sort of CD8+ oeT cells after 24 h restimulation with autologous tumor organoids (cells that express the antigen), single-cell RT-PCR; 3% in TIL alone; ex vivo sorted cells; details: chains alpha TRAV14/DV4*01 TRAJ45*01 CDR3:beta TRBV20-1*01 TRBJ2-1*01 CDR3
[7] = target: T2, unknown natural tumor antigen of the …; assay: CD137 sort of CD8+ oeT cells after 24 h restimulation with autologous tumor organoids (cells that express the antigen), single-cell RT-PCR; 3.6% in TIL alone; ex vivo sorted cells; details: chains alpha TRAV35*02 TRAJ10*01 CDR3:beta TRBV28*01 TRBJ2-2*01 CDR3
[8] = target: T4, unknown natural tumor antigen of the …; assay: CD137 sort of CD8+ oeT cells after 24 h restimulation with autologous tumor organoids (cells that express the antigen), single-cell RT-PCR; 1.3% in TIL alone; ex vivo sorted cells; details: chains alpha TRAV10*01 TRAJ16*02 CDR3:beta TRBV10-3*02 TRBJ2-1*01 CDR3
[9] = target: T2, unknown natural tumor antigen of the …; assay: CD137 sort of CD8+ oeT cells after 24 h restimulation with autologous tumor organoids (cells that express the antigen), single-cell RT-PCR; 2.5% in TIL alone; ex vivo sorted cells; details: chains alpha TRAV24*01 TRAJ12*01 CDR3:beta TRBV28*01 TRBJ1-2*01 CDR3
[10] = target: T3, unknown natural tumor antigen of the …; assay: CD137 sort of CD8+ oeT cells after 24 h restimulation with autologous tumor organoids (cells that express the antigen), single-cell RT-PCR; 1.1% in TIL alone; ex vivo sorted cells
[11] = target: T4, unknown natural tumor antigen of the …; assay: CD137 sort of CD8+ oeT cells after 24 h restimulation with autologous tumor organoids (cells that express the antigen), single-cell RT-PCR; 0% in TIL alone; ex vivo sorted cells; details: chains alpha TRAV10*01 TRAJ4*01 CDR3:beta TRBV9*01 TRBJ1-2*01 CDR3
[12] = target: T2, unknown natural tumor antigen of the …; assay: CD137 sort of CD8+ oeT cells after 24 h restimulation with autologous tumor organoids (cells that express the antigen), single-cell RT-PCR; 4.3% in TIL alone; ex vivo sorted cells; details: chains alpha TRAV35*02 TRAJ10*01 CDR3:beta TRBV6-1*01 TRBJ1-2*01 CDR3
[13] = target: T3, unknown natural tumor antigen of the …; assay: CD137 sort of CD8+ oeT cells after 24 h restimulation with autologous tumor organoids (cells that express the antigen), single-cell RT-PCR; 2.8% in TIL alone; ex vivo sorted cells; details: chains alpha TRAV23/DV6*01 TRAJ45*01 CDR3:beta TRBV9*01 TRBJ2-1*01 CDR3

- frequency among sorted CD8+CD137+ PDO(T)-oeT cells [1]: 13.5%
B1: TCR17 (peptide)
chain 1: AVFSGGYNKLI
chain 2: ASSLEFYSNQPQH

- frequency among sorted CD8+CD137+ PDO(T)-oeT cells [2]: 5%
B2: TCR5 (peptide)
chain 1: AVSRDDKII
chain 2: ASSYVGNTGELF

- frequency among sorted CD8+CD137+ PDO(T)-oeT cells ([3]; chains alpha TRAV22*01 TRAJ26*01 CDR3:beta TRBV4-3*01 TRBJ1-4*01 CDR3): 7.7%
B3: TCR19 (peptide)
chain 1: AVGRGYGQNFV
chain 2: ASSQDGGLNEKLF

- frequency among sorted CD8+CD137+ PDO(T)-oeT cells ([4]; chains alpha TRAV13-1*01 TRAJ42*01 CDR3:beta TRBV4-1*01 TRBJ2-1*01 CDR3): 3.1%
B4: TCR10 (peptide)
chain 1: AASPPGGSQGNLI
chain 2: ASSHRTSSRGEQF

- frequency among sorted CD8+CD137+ PDO(T)-oeT cells [5]: 3%
B5: TCR15 (peptide)
chain 1: AVSGRSNDYKLS
chain 2: ASSEKRQGAGNTIY

- frequency among sorted CD8+CD137+ PDO(T)-oeT cells ([3]; chains alpha TRAV3*01 TRAJ31*01 CDR3:beta TRBV9*01 TRBJ2-3*01 CDR3): 10.3%
B6: TCR18 (peptide)
chain 1: AVRDEGARLM
chain 2: ASSIFSGTGGADTQY

- frequency among sorted CD8+CD137+ PDO(T)-oeT cells [6]: 4%
B7: TCR13 (peptide)
chain 1: ANDSGGGADGLT
chain 2: SARGLLGGRAREQF

- frequency among sorted CD8+CD137+ PDO(T)-oeT cells [7]: 17.8%
B8: TCR2 (peptide)
chain 1: AGVTGGGNKLT
chain 2: ASSLTSASGELF

- frequency among sorted CD8+CD137+ PDO(T)-oeT cells [8]: 8%
B9: TCR12 (peptide)
chain 1: VSGFSDGQKLL
chain 2: ATTKTGERPDEQF

- frequency among sorted CD8+CD137+ PDO(T)-oeT cells ([3]; chains alpha TRAV13-2*01 TRAJ8*01 CDR3:beta TRBV30*01 TRBJ1-2*01 CDR3): 7.1%
B10: TCR20 (peptide)
chain 1: AENMGFQKLV
chain 2: AWTQGANGYT

- frequency among sorted CD8+CD137+ PDO(T)-oeT cells [9]: 6.7%
B11: TCR3 (peptide)
chain 1: APWMDSSYKLI
chain 2: ASSIGGHDGYT

- frequency among sorted CD8+CD137+ PDO(T)-oeT cells ([10]; chains alpha TRAV8-3*01 TRAJ21*01 CDR3:beta TRBV28*01 TRBJ2-2*01 CDR3): 13.4%
B12: TCR6 (peptide)
chain 1: AVGDNFNKFY
chain 2: ASSYVGNTGELF

- frequency among sorted CD8+CD137+ PDO(T)-oeT cells [11]: 4%
B13: TCR14 (peptide)
chain 1: VVSFSGGYNKLI
chain 2: ASSVGDRDYGYT

- frequency among sorted CD8+CD137+ PDO(T)-oeT cells ([4]; chains alpha TRAV14/DV4*03 TRAJ24*03 CDR3:beta TRBV28*01 TRBJ1-4*01 CDR3): 12.4%
B14: TCR7 (peptide)
chain 1: AMREGADSWGKFQ
chain 2: ASSLHGRGDEKLF

- frequency among sorted CD8+CD137+ PDO(T)-oeT cells [12]: 25.6%
B15: TCR1 (peptide)
chain 1: AGVTGGGNKLT
chain 2: ASSEGTGFYGYT

- frequency among sorted CD8+CD137+ PDO(T)-oeT cells ([10]; chains alpha TRAV1-2*01 TRAJ6*01 CDR3:beta TRBV28*01 TRBJ2-2*01 CDR3): 8.2%
B16: TCR9 (peptide)
chain 1: AVRGTLSGGSYIPT
chain 2: ASSATSASGELF

- frequency among sorted CD8+CD137+ PDO(T)-oeT cells [13]: 9.3%
B17: TCR8 (peptide)
chain 1: ALKAGGGASKLT
chain 2: ASSVGGGVDEQF
